The source of these data is US8299032B2, “Self-assembling peptide and gel produced from the same” (Menicon Co., Ltd., priority 2005, dated 2012).

A short description of data set [1]: Visible light transmittance of peptide gel (380 to 780 nm). Type of data set: physicochemical. Particulars: for Visible Light Transmittance (average, 380 to 780 nm): gel of 0.5% by weight peptide in 0.1 M Tris-HCl (pH 7.5), optical path length 10 mm; for decreasing ratio of visible light transmittance: after 2 months at room temperature versus before storage; for visible light transmittance (average) after standing: gel allowed to stand at room temperature for 2 months; for long-term stability of gel (no white turbidity): room temperature, 2 months. The text has this: In a case where the gel of the present invention is used, for example, as a scaffold for a three-dimensional culture of the cells, it is desired that the used concentration of the self-assembling peptide of the present invention upon gel formation in a medium for cell culture is preferably 0.3% by weight or more, and more preferably 0.5% by weight or more, from the viewpoint of easiness in gel formation, and that the used concentration of the peptide is preferably 5% by weight or less, and more preferably 2% by weight or less, from the viewpoint of easy miscibility with the cells. In addition, in such a case, it is preferable that the gel is transparent, from the viewpoint of easiness in cell observation with a fluorescent microscope or the like. For example, in a gel containing 0.5% by weight of a self-assembling peptide, it is desired that the visible light transmittance which is determined in terms of absorbance at 380 to 780 nm in a cell having an optical path of 10 mm is at least 50%/cm, and it is desired that the visible light transmittance is preferably 70%/cm or more, and more preferably 90% 1 cm or more. Further, it is desired that the visible light transmittance of the gel after allowing it to stand at room temperature for a long period of time, for example, 2 months, is preferably 50%/cm or more, more preferably 70%/cm or more, and even more preferably 90%/cm or more, from the viewpoint of long-term stability of the gel, and that the decreasing ratio (%) of the visible light transmittance (100−(visible light transmittance after storage/visible light transmittance before storage×100)) is preferably 30% or less, more preferably 20% or less, and even more preferably 10% or less. The transparency of the gel can be determined with UV/VIS measurement apparatus as described in Examples set forth below.
Peptide Nos. 1 to 9 synthesized in Production Examples 1 and 2 were dissolved in 0.1 M Tris-HCl (pH 7.5), to prepare a gel composed of a 0.5% by weight peptide solution. The visible light transmittance of the prepared gel within the range of from 380 to 780 nm was determined using a cell having an optical path length of 10 mm and trade name V-550 UV/VIS Spectrometer (manufactured by JASCO).
Therefore, it could be seen that each of Peptide Nos. 1 to 9 mentioned above formed a transparent gel. In addition, of the above gels, the gel comprising each of Peptide Nos. 1, 4, 6, or 7 was allowed to stand at room temperature for 2 months, and the visible light transmittance was determined in the same manner as above. As a result, an average thereof was respectively 88, 87, 91, or 93%/cm, and the decreasing ratio was respectively 9.3, 5.4, 6.2, or 4.1%. In other words, the gel after 2 months passed from the preparation also maintained high visible light transmittance.

A short description of data set [2]: Gel formation, test tube placed up-side-down. Type of data set: physicochemical. Further details: key to Gel Formation: Excellent: those in which the contents did not drop off were evaluated as the gel formation being “excellent”; Poor: those in which the contents dropped off were evaluated as being “poor.”. The settings on record: 37° C. for 24 hours; for Gel Formation: peptide 0.5% by weight; for gel formation in neutral aqueous solution (summary of Table 11): neutral aqueous solutions, 0.5% by weight. As to the method: Peptide Nos. 1, 2, 4, 5, 6, 10 and 11 synthesized in Production Examples 1 and 2 were dissolved in each of aqueous solutions listed in Table 11. A 1.5 mL test tube was charged with 1 mL of the resulting peptide-containing aqueous solution. Next, the test tube was allowed to stand at 37° C. for 24 hours.

As to “KASAKAEAKASAKAEA (Synthetic self-assembling peptide of the invention) [Peptide No. 8, self-assembling peptide of the present invention]”, in data set [1], the “Visible Light Transmittance (average, 380 to 780 nm)” value stood at 94%.
For “RAAARADARAAARADA (Synthetic self-assembling peptide of the invention) [Peptide No. 3, self-assembling peptide of the present invention]”, the “Visible Light Transmittance (average, 380 to 780 nm)” value in data set [1] stood at 91%.
Regarding “RADARASARASARADA (Synthetic self-assembling peptide of the invention) [Peptide No. 5, self-assembling peptide of the present invention]”, the “Gel Formation” value in data set [2] (Tris-HCl 0.1 M pH 7.5) is “Excellent”. Also, the “gel formation in neutral aqueous solution (summary of Table 11)” value (shortened to “gel formation … (summary of Table 11)”) in data set [2] is “formed into gel in various neutral aqueous solutions”. The “Visible Light Transmittance (average, 380 to 780 nm)” value in data set [1] was 78%.
With “RANARADARANARADA (Synthetic self-assembling peptide of the invention) [Peptide No. 2, self-assembling peptide of the present invention]”, the “Gel Formation” value in data set [2] (Tris-HCl 0.1 M pH 7.5) is reported as “Excellent”. Also, in data set [2], the “gel formation … (summary of Table 11)” value is “formed into gel in various neutral aqueous solutions”. Besides, the “Visible Light Transmittance (average, 380 to 780 nm)” value in data set [1] is 77%.
As to “RASARADARADARASA (Synthetic self-assembling peptide of the invention) [Peptide No. 4, self-assembling peptide of the present invention]”, the “Gel Formation” value in data set [2] (PBS pH 7.4), in data set [2] (Tris-HCl 0.05 M pH 7.5), in data set [2] (Tris-HCl 0.1 M pH 7.5), in data set [2] (Tris-HCl 0.2 M pH 7.5), in data set [2] (Tris-HCl 0.4 M pH 7.5) and in data set [2] (Tris-HCl 0.6 M pH 7.5) was “Excellent” each time. Also, the “Gel Formation” value in data set [2] (Tris-HCl 0.8 M pH 7.5) and in data set [2] (Tris-HCl 1 M pH 7.5) was “Excellent” throughout. The “gel formation … (summary of Table 11)” value in data set [2] is listed as “formed into gel in various neutral aqueous solutions”. In data set [1], the “decreasing ratio of visible light transmittance” value came to 5.4%. Besides, in data set [1], the “visible light transmittance (average) after standing” value is listed as 87 %/cm. For the same sequence, the “Visible Light Transmittance (average, 380 to 780 nm)” value in data set [1] came out at 92%. Also, in data set [1], the “long-term stability of gel (no white turbidity)” value is on record as “stable for a long period of time without becoming white turbid”.
Take “RASARADARASA (Synthetic self-assembling peptide of the invention) [Peptide No. 7, self-assembling peptide of the present invention]”: in data set [1], the “decreasing ratio of visible light transmittance” value is reported as 4.1%; the “visible light transmittance (average) after standing” value amounted to 93 %/cm; the “Visible Light Transmittance (average, 380 to 780 nm)” value stood at 97%; the “long-term stability of gel (no white turbidity)” value was “stable for a long period of time without becoming white turbid”.
With “RFDFRFDFRFDFRFDF (Synthetic peptide which is not a peptide of the invention) [compound 11, comparative peptide, which is not self-assembling peptide of the present invention; charge at pH 7.0 is 0, reference compound]”, the “Gel Formation” value in data set [2] (PBS pH 7.4) was “Poor”. Besides, in data set [2], the “gel formation … (summary of Table 11)” value is on record as “did not form into gel in a neutral aqueous solution”.
“SAEAKAEASAEAKAEA (Synthetic self-assembling peptide of the invention) [Peptide No. 9, self-assembling peptide of the present invention]”: in data set [1], the “Visible Light Transmittance (average, 380 to 780 nm)” value is 93%.
